Columns and labels:
[1] = molecular target: the molecule itself; assay: SEC; Superose 6 10/300, buffer D (20 mM Tris-HCl, 150 mM sodium chloride, pH 7.5); data not shown
[2] = molecular target: the molecule itself; assay: SEC; Superose 6 10/300 (full-length recombinant hα2M) or Superdex 75 10/300 (pro-TGF-β2), buffer D (20 mM Tris-HCl, 150 mM sodium chloride, pH 7.5)
[3] = molecular target: T1, native authentic human α2-macroglobulin (human, UniProt P01023 24-1474, thioester bond intact (native form)); assay: native gel or EMSA; Sulfo-NHS-AMCA-labelled GRAB mixed with hα2M variants at a 4:1 molar ratio, buffer J, two hours at 37 °C, 10% native PAGE, gel fluorescence then Coomassie; conditions: both partners purified
T1 construct: human α2-macroglobulin, UniProt P01023, 1,474-residue precursor; as secreted it lacks the signal peptide (recombinant constructs begin at S24); Tetramer (680.6 kDa by SEC-MALLS); glycosylated; also called hα2M; native hα2M; source: purified from human blood plasma of individual donors (PEG 4,000 precipitation, zinc-chelating resin, IEC, SEC)
T1 sequence (looked up): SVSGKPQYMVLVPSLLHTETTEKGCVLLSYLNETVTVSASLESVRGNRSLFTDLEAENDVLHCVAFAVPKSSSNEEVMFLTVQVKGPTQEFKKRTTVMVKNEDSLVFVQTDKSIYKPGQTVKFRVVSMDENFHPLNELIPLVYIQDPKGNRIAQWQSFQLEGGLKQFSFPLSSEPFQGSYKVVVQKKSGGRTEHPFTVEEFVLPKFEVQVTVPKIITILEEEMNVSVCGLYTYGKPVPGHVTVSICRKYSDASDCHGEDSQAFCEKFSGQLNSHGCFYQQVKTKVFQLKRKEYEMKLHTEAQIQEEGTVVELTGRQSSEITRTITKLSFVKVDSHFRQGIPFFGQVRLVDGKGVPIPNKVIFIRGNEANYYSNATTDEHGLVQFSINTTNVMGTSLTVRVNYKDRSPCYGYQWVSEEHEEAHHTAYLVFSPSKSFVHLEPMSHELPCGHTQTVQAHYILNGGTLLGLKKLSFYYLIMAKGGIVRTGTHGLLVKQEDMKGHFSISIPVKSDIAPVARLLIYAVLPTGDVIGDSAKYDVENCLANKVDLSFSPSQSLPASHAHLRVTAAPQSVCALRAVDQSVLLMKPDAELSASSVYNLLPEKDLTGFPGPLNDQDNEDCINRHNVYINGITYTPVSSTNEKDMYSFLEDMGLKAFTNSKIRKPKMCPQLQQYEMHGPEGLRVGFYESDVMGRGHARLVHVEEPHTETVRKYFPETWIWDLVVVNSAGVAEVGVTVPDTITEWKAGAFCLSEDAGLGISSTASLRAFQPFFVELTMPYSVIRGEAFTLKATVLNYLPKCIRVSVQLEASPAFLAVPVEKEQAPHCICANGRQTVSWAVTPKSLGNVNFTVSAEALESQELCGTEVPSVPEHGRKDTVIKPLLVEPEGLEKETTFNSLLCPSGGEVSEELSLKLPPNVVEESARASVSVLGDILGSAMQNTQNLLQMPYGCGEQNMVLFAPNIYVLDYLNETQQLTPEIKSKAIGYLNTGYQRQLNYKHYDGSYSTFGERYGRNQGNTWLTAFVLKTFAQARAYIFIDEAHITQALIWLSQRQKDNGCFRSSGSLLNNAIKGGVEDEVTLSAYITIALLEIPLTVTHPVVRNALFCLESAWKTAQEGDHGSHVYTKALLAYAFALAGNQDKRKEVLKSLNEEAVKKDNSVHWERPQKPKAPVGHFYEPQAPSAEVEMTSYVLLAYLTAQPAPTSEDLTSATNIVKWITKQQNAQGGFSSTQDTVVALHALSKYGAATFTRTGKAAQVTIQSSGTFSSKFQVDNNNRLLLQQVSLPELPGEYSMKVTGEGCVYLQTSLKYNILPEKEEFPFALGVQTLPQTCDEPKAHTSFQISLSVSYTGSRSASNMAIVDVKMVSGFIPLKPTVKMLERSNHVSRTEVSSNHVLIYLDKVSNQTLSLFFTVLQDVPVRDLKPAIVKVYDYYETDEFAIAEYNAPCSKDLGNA

[4] = molecular target: T2, methylamine-induced authentic human α2-macroglobulin (human, UniProt P01023 24-1474, thioester bond opened by methylamine, producing a free cysteine); assay: as above; conditions: both partners purified
T2 construct: human α2-macroglobulin, UniProt P01023; plasma protein as m1, induced form; Tetramer (684.1 kDa by SEC-MALLS); also called induced hα2M; induced authentic hα2M
T2 sequence (looked up): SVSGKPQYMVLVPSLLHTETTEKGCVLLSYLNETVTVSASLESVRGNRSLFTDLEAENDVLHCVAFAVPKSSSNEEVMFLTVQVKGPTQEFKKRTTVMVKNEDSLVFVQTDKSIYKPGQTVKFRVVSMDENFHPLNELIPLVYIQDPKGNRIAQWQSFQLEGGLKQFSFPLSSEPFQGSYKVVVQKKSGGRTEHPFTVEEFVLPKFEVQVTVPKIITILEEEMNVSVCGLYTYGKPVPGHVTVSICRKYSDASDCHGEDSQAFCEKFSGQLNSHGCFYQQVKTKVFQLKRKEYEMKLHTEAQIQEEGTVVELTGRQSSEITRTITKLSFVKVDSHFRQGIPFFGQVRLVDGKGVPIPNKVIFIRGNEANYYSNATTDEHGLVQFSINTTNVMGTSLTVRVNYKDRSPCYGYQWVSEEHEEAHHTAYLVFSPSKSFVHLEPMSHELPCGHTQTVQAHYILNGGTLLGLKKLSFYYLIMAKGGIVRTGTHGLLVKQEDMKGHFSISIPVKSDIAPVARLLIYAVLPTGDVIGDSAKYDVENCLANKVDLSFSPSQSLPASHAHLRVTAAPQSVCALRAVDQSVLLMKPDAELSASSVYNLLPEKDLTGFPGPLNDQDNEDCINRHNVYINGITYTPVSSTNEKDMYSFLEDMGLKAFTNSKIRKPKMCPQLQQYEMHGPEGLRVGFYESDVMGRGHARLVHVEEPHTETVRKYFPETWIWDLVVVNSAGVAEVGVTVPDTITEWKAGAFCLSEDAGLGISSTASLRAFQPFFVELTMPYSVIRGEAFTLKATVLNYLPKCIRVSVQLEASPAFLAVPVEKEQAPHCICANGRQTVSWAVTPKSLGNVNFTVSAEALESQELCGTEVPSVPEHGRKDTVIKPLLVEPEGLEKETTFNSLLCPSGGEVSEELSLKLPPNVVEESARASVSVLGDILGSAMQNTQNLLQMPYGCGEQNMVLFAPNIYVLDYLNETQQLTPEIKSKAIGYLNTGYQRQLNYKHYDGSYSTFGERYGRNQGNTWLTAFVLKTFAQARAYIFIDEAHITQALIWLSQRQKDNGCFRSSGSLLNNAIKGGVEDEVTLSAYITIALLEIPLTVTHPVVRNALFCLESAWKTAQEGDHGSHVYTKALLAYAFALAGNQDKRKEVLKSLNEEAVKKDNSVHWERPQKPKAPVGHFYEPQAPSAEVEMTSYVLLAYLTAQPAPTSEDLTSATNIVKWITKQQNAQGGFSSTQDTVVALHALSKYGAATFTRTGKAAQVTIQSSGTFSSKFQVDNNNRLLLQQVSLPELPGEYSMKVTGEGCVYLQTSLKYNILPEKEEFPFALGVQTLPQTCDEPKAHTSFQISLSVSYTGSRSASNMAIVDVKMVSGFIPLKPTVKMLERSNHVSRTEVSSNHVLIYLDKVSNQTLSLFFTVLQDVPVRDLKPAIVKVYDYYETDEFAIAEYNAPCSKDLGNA

B1: recombinant full-length human α2-macroglobulin from S2 cells (natural protein)
chain: SVSGKPQYMVLVPSLLHTETTEKGCVLLSYLNETVTVSASLESVRGNRSLFTDLEAENDVLHCVAFAVPKSSSNEEVMFLTVQVKGPTQEFKKRTTVMVKNEDSLVFVQTDKSIYKPGQTVKFRVVSMDENFHPLNELIPLVYIQDPKGNRIAQWQSFQLEGGLKQFSFPLSSEPFQGSYKVVVQKKSGGRTEHPFTVEEFVLPKFEVQVTVPKIITILEEEMNVSVCGLYTYGKPVPGHVTVSICRKYSDASDCHGEDSQAFCEKFSGQLNSHGCFYQQVKTKVFQLKRKEYEMKLHTEAQIQEEGTVVELTGRQSSEITRTITKLSFVKVDSHFRQGIPFFGQVRLVDGKGVPIPNKVIFIRGNEANYYSNATTDEHGLVQFSINTTNVMGTSLTVRVNYKDRSPCYGYQWVSEEHEEAHHTAYLVFSPSKSFVHLEPMSHELPCGHTQTVQAHYILNGGTLLGLKKLSFYYLIMAKGGIVRTGTHGLLVKQEDMKGHFSISIPVKSDIAPVARLLIYAVLPTGDVIGDSAKYDVENCLANKVDLSFSPSQSLPASHAHLRVTAAPQSVCALRAVDQSVLLMKPDAELSASSVYNLLPEKDLTGFPGPLNDQDNEDCINRHNVYINGITYTPVSSTNEKDMYSFLEDMGLKAFTNSKIRKPKMCPQLQQYEMHGPEGLRVGFYESDVMGRGHARLVHVEEPHTETVRKYFPETWIWDLVVVNSAGVAEVGVTVPDTITEWKAGAFCLSEDAGLGISSTASLRAFQPFFVELTMPYSVIRGEAFTLKATVLNYLPKCIRVSVQLEASPAFLAVPVEKEQAPHCICANGRQTVSWAVTPKSLGNVNFTVSAEALESQELCGTEVPSVPEHGRKDTVIKPLLVEPEGLEKETTFNSLLCPSGGEVSEELSLKLPPNVVEESARASVSVLGDILGSAMQNTQNLLQMPYGCGEQNMVLFAPNIYVLDYLNETQQLTPEIKSKAIGYLNTGYQRQLNYKHYDGSYSTFGERYGRNQGNTWLTAFVLKTFAQARAYIFIDEAHITQALIWLSQRQKDNGCFRSSGSLLNNAIKGGVEDEVTLSAYITIALLEIPLTVTHPVVRNALFCLESAWKTAQEGDHGSHVYTKALLAYAFALAGNQDKRKEVLKSLNEEAVKKDNSVHWERPQKPKAPVGHFYEPQAPSAEVEMTSYVLLAYLTAQPAPTSEDLTSATNIVKWITKQQNAQGGFSSTQDTVVALHALSKYGAATFTRTGKAAQVTIQSSGTFSSKFQVDNNNRLLLQQVSLPELPGEYSMKVTGEGCVYLQTSLKYNILPEKEEFPFALGVQTLPQTCDEPKAHTSFQISLSVSYTGSRSASNMAIVDVKMVSGFIPLKPTVKMLERSNHVSRTEVSSNHVLIYLDKVSNQTLSLFFTVLQDVPVRDLKPAIVKVYDYYETDEFAIAEYNAPCSKDLGNPTG
notes: human α2-macroglobulin, UniProt P01023, residues S24-N1473; residues from the construct before the His6-tag; Found in the induced form; also called recombinant hα2M from S2 cells; pIE-hα2M-H6; source: Drosophila S2 cells, transiently transfected, secreted (AKH signal peptide), purified (Ni-NTA, IEC, SEC); not shown: His6, C-terminal, kept
B1 was tested, and the “stoichiometry N” value [1] was 4.

B2: recombinant full-length human α2-macroglobulin from Expi293F cells (natural protein, UniProt P01023 24-1468, looked up)
chain: SVSGKPQYMVLVPSLLHTETTEKGCVLLSYLNETVTVSASLESVRGNRSLFTDLEAENDVLHCVAFAVPKSSSNEEVMFLTVQVKGPTQEFKKRTTVMVKNEDSLVFVQTDKSIYKPGQTVKFRVVSMDENFHPLNELIPLVYIQDPKGNRIAQWQSFQLEGGLKQFSFPLSSEPFQGSYKVVVQKKSGGRTEHPFTVEEFVLPKFEVQVTVPKIITILEEEMNVSVCGLYTYGKPVPGHVTVSICRKYSDASDCHGEDSQAFCEKFSGQLNSHGCFYQQVKTKVFQLKRKEYEMKLHTEAQIQEEGTVVELTGRQSSEITRTITKLSFVKVDSHFRQGIPFFGQVRLVDGKGVPIPNKVIFIRGNEANYYSNATTDEHGLVQFSINTTNVMGTSLTVRVNYKDRSPCYGYQWVSEEHEEAHHTAYLVFSPSKSFVHLEPMSHELPCGHTQTVQAHYILNGGTLLGLKKLSFYYLIMAKGGIVRTGTHGLLVKQEDMKGHFSISIPVKSDIAPVARLLIYAVLPTGDVIGDSAKYDVENCLANKVDLSFSPSQSLPASHAHLRVTAAPQSVCALRAVDQSVLLMKPDAELSASSVYNLLPEKDLTGFPGPLNDQDNEDCINRHNVYINGITYTPVSSTNEKDMYSFLEDMGLKAFTNSKIRKPKMCPQLQQYEMHGPEGLRVGFYESDVMGRGHARLVHVEEPHTETVRKYFPETWIWDLVVVNSAGVAEVGVTVPDTITEWKAGAFCLSEDAGLGISSTASLRAFQPFFVELTMPYSVIRGEAFTLKATVLNYLPKCIRVSVQLEASPAFLAVPVEKEQAPHCICANGRQTVSWAVTPKSLGNVNFTVSAEALESQELCGTEVPSVPEHGRKDTVIKPLLVEPEGLEKETTFNSLLCPSGGEVSEELSLKLPPNVVEESARASVSVLGDILGSAMQNTQNLLQMPYGCGEQNMVLFAPNIYVLDYLNETQQLTPEIKSKAIGYLNTGYQRQLNYKHYDGSYSTFGERYGRNQGNTWLTAFVLKTFAQARAYIFIDEAHITQALIWLSQRQKDNGCFRSSGSLLNNAIKGGVEDEVTLSAYITIALLEIPLTVTHPVVRNALFCLESAWKTAQEGDHGSHVYTKALLAYAFALAGNQDKRKEVLKSLNEEAVKKDNSVHWERPQKPKAPVGHFYEPQAPSAEVEMTSYVLLAYLTAQPAPTSEDLTSATNIVKWITKQQNAQGGFSSTQDTVVALHALSKYGAATFTRTGKAAQVTIQSSGTFSSKFQVDNNNRLLLQQVSLPELPGEYSMKVTGEGCVYLQTSLKYNILPEKEEFPFALGVQTLPQTCDEPKAHTSFQISLSVSYTGSRSASNMAIVDVKMVSGFIPLKPTVKMLERSNHVSRTEVSSNHVLIYLDKVSNQTLSLFFTVLQDVPVRDLKPAIVKVYDYYETDEFAIAEYNAPCS
notes: human α2-macroglobulin, UniProt P01023, residues S24-S1468; also called recombinant hα2M from Expi293F cells; pS6-hα2M-H6; source: Expi293F cells, transiently transfected, secreted (mouse Ig κ leader), purified (Ni-NTA, IEC, SEC); not shown: His6, C-terminal, kept
In the case of B2, the “stoichiometry N” value [2] is reported as 4.

B3: G-related α2M-binding protein (GRAB), V34-N181, labelled with Sulfo-NHS-AMCA (domain or fragment)
chain: GAMVDSPIEQPRIIPNGGTLTNLLGNAPEKLALRNEERAIDELKKQAIEDKEATTAIEAASSDALEALADQTDALQSEEAAVVKADNAASDALEALADQTDALQSEEAEVVQSDNAASDAWEKAATPIALDVKKTKDTKPVVKKEERQNVN
modifications: sulfosuccinimidyl-7-amino-4-methylcoumarin-3-acetate (Sulfo-NHS-AMCA) label, sites not stated
notes: residues left at the N-terminus after TEV cleavage, from the cloning strategy; also called fluorophore-labelled GRAB; labelled GRAB; source: E. coli BL21 (DE3), purified, labelled with Sulfo-NHS-AMCA; not shown: His6, N-terminal, cleaved
B3: binds [3]; binds [4].

From paper PMC6591361, “Recombinant production of human α2-macroglobulin variants and interaction studies with recombinant G-related α2-macroglobulin binding protein and latent transforming growth factor-β2” (Scientific Reports, 2019)
